From US20250002605A1 (WUHAN YZY BIOPHARMA, published 2025)

Legend:
[1] = target: T1, human EpCAM on the cell surface (human, UniProt P16422 24-314); assay: flow cytometry (FACS) on HCT116 cells, PE anti-human IgG Fc detection
T1 construct: whole, on cells; also called EpCAM of cells; HCT116 cells
T1 sequence (looked up): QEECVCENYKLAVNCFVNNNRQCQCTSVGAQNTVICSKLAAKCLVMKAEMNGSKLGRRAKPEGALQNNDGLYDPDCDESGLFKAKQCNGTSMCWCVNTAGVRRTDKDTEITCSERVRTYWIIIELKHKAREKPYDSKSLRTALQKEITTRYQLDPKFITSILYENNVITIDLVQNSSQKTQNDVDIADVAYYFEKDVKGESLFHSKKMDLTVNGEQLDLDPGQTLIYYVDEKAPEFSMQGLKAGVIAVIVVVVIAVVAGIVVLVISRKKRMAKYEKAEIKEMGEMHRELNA

[2] = target: human CD3 antigen (SB, Cat: CT038-H2508H) (human, UniProt P07766 23-126; P04234 22-105); assay: SPR (Biacore T200), antigen amine-coupled on CM5, antibody as analyte, 1:1 fit; D0 sample
[3] = target: T2, human EpCAM antigen (SB, Cat: 10694-H08H) (human, UniProt P16422 24-265); assay: as above
T2 construct: Bought antigen immobilised on a CM5 chip
T2 sequence (looked up): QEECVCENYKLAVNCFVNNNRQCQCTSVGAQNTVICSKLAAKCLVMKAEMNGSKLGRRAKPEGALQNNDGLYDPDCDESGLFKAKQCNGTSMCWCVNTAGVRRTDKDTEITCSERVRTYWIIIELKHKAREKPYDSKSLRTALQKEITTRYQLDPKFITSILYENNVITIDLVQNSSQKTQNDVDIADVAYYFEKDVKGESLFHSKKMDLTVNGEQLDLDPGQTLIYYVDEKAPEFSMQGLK

B1: M700 monoclonal antibody (antibody, human IgG1, kappa, V domains shown)
VH: VQLLEQSGAELVRPGTSVKISCKASGYAFTNYWLGWVKQRPGHGLEWIGDIFPGSGNIHYNEKFKGKATLTADKSSSTAYMQLSSLTFEDSAVYFCARLRNWDEPMDYWGQGTTVTVSS
VL: ELVMTQSPSSLTVTAGEKVTMSCKSSQSLLNSGNQKNYLTWYQQKPGQPPKLLIYWASTRESGVPDRFTGSGSGTDFTLTISSVQAEDLAVYYCQNDYSYPLTFGAGTKLEIKR
notes: also called anti-EpCAM monoclonal antibody control
Binder B1 has an EC50 [1] of 1.78 nM.

B2: M701C (bispecific antibody, human IgG1, kappa)
light: ELVMTQSPSSLTVTAGEKVTMSCKSSQSLLNSGNQKNYLTWYQQKPGQPPKLLIYWASTRESGVPDRFTGSGSGTDFTLTISSVQAEDLAVYYCQNDYSYPLTFGAGTKLEIKRTVAAPSVFIFPPSDEQLKSGTASVVCLLNNFYPREAKVQWKVDNALQSGNSQESVTEQDSKDSTYSLSSTLTLSKADYEKHKVYACEVTHQGLSSPVTKSFNRGEC
heavy: EVQLLEQSGAELVRPGTSVKISCKASGYAFTNYWLGWVKQRPGHGLEWIGDIFPGSGNIHYNEKFKGKATLTADKSSSTAYMQLSSLTFEDSAVYFCARLRNWDEPMDYWGQGTTVTVSSASTKGPSVFPLAPSSKSTSGGTAALGCLVKDYFPEPVTVSWNSGALTSGVHTFPAVLQSSGLYSLSSVVTVPSSSLGTQTYICNVNHKPSNTKVDKKVEPKSCDKTHTCPPCPAPELLGGPSVFLFPPKPKDTLMISRTPEVTCVVVDVSHEDPEVKFNWYVDGVEVHNAKTKPREEQYNSTYRVVSVLTVLHQDWLNGKEYKCKVSNKALPAPIEKTISKAKGQPREPQVYTLPPSRDELTKNQVSLWCLVKGFYPSDIAVEWESNGQPENNYDTTPPVLDSDGSFFLYSDLTVDKSRWQQGNVFSCSVMHEALHNHYTQKSLSLSPGK
chain: EVQLVESGGGLVQPGGSLRLSCKASGYTFTRYTMHWVRQAPGKGLEWIGYINPSRGYTNYNQKVKDRFTISRDNSKNTAFLQMDSLRPEDTGVYFCARYYDDHYCLDYWGQGTPVTVSSGGGGSGGGGSGGGGSDIQMTQSPSSLSASVGDRVTITCSASSSVSYMNWYQQTPGKAPKRWIYDTSKLASGVPSRFSGSGSGTDYTFTISSLQPEDIATYYCQQWSSNPFTFGQGTKVEIKRGAAAEPKSCDKTHTCPPCPAPELLGGPSVFLFPPKPKDTLMISRTPEVTCVVVDVSHEDPEVKFNWYVDGVEVHNAKTKPREEQYNSTYRVVSVLTVLHQDWLNGKEYKCKVSNKALPAPIEKTISKAKGQPREPQVYTLPPSRDELTKNQVSLTCRVKGFYPSDIAVEWESNGQPENNYKTTPPVLKSDGSFFLASKLTVDKSRWQQGNVFSCSVMHEALHNHYTQKSLSLSPGK
notes: YBODY format; also called bispecific antibody M701C
Work on B2 yielded a Kd [2] of 37.2 nM and a Kd [3] of 18.6 nM.

B3: M701F (bispecific antibody, human IgG1, kappa)
light: ELVMTQSPSSLTVTAGEKVTMSCKSSQSLLNSGNQKNYLTWYQQKPGQPPKLLIYWASTRESGVPDRFTGSGSGTDFTLTISSVQAEDLAVYYCQNDYSYPLTFGAGTKLEIKRTVAAPSVFIFPPSDEQLKSGTASVVCLLNNFYPREAKVQWKVDNALQSGNSQESVTEQDSKDSTYSLSSTLTLSKADYEKHKVYACEVTHQGLSSPVTKSFNRGEC
heavy: EVQLLEQSGAELVRPGTSVKISCKASGYAFTNYWLGWVKQRPGHGLEWIGDIFPGSGNIHYNEKFKGKATLTADKSSSTAYMQLSSLTFEDSAVYFCARLRNWDEPMDYWGQGTTVTVSSASTKGPSVFPLAPSSKSTSGGTAALGCLVKDYFPEPVTVSWNSGALTSGVHTFPAVLQSSGLYSLSSVVTVPSSSLGTQTYICNVNHKPSNTKVDKKVEPKSCDKTHTCPPCPAPELLGGPSVFLFPPKPKDTLMISRTPEVTCVVVDVSHEDPEVKFNWYVDGVEVHNAKTKPREEQYNSTYRVVSVLTVLHQDWLNGKEYKCKVSNKALPAPIEKTISKAKGQPREPQVYTLPPSRDELTKNQVSLWCLVKGFYPSDIAVEWESNGQPENNYDTTPPVLDSDGSFFLYSDLTVDKSRWQQGNVFSCSVMHEALHNHYTQKSLSLSPGK
chain: QVQLVQSGAEVKKPGASVKVSCKASGYTFISYTMHWVRQAPGQGLEWMGYINPRSGYTHYNQKLKDKATLTADKSASTAYMELSSLRSEDTAVYYCARSAYYDYDGFAYWGQGTLVTVSSGGGGSGGGGSGGGGSDIQMTQSPSSLSASVGDRVTITCSASSSVSYMNWYQQKPGKAPKRLIYDTSKLASGVPSRFSGSGSGTDFTLTISSLQPEDFATYYCQQWSSNPPTFGGGTKVEIKRGAAAEPKSCDKTHTCPPCPAPELLGGPSVFLFPPKPKDTLMISRTPEVTCVVVDVSHEDPEVKFNWYVDGVEVHNAKTKPREEQYNSTYRVVSVLTVLHQDWLNGKEYKCKVSNKALPAPIEKTISKAKGQPREPQVYTLPPSRDELTKNQVSLTCRVKGFYPSDIAVEWESNGQPENNYKTTPPVLKSDGSFFLASKLTVDKSRWQQGNVFSCSVMHEALHNHYTQKSLSLSPGK
notes: YBODY format; also called bispecific antibody M701F
For B3, the Kd [2] was 61.3 nM and the Kd [3] was 17.9 nM.

B4: M701E (bispecific antibody)
light: ELVMTQSPSSLTVTAGEKVTMSCKSSQSLLNSGNQKNYLTWYQQKPGQPPKLLIYWASTRESGVPDRFTGSGSGTDFTLTISSVQAEDLAVYYCQNDYSYPLTFGAGTKLEIKRTVAAPSVFIFPPSDEQLKSGTASVVCLLNNFYPREAKVQWKVDNALQSGNSQESVTEQDSKDSTYSLSSTLTLSKADYEKHKVYACEVTHQGLSSPVTKSFNRGEC
heavy: EVQLLEQSGAELVRPGTSVKISCKASGYAFTNYWLGWVKQRPGHGLEWIGDIFPGSGNIHYNEKFKGKATLTADKSSSTAYMQLSSLTFEDSAVYFCARLRNWDEPMDYWGQGTTVTVSSASTKGPSVFPLAPSSKSTSGGTAALGCLVKDYFPEPVTVSWNSGALTSGVHTFPAVLQSSGLYSLSSVVTVPSSSLGTQTYICNVNHKPSNTKVDKKVEPKSCDKTHTCPPCPAPELLGGPSVFLFPPKPKDTLMISRTPEVTCVVVDVSHEDPEVKFNWYVDGVEVHNAKTKPREEQYNSTYRVVSVLTVLHQDWLNGKEYKCKVSNKALPAPIEKTISKAKGQPREPQVYTLPPSRDELTKNQVSLWCLVKGFYPSDIAVEWESNGQPENNYDTTPPVLDSDGSFFLYSDLTVDKSRWQQGNVFSCSVMHEALHNHYTQKSLSLSPGK
chain: not shown
notes: YBODY format; also called bispecific antibody M701E
In the case of B4, the Kd [3] is reported as 23.1 nM.

B5: M701D (bispecific antibody, human IgG1, kappa)
light: ELVMTQSPSSLTVTAGEKVTMSCKSSQSLLNSGNQKNYLTWYQQKPGQPPKLLIYWASTRESGVPDRFTGSGSGTDFTLTISSVQAEDLAVYYCQNDYSYPLTFGAGTKLEIKRTVAAPSVFIFPPSDEQLKSGTASVVCLLNNFYPREAKVQWKVDNALQSGNSQESVTEQDSKDSTYSLSSTLTLSKADYEKHKVYACEVTHQGLSSPVTKSFNRGEC
heavy: EVQLLEQSGAELVRPGTSVKISCKASGYAFTNYWLGWVKQRPGHGLEWIGDIFPGSGNIHYNEKFKGKATLTADKSSSTAYMQLSSLTFEDSAVYFCARLRNWDEPMDYWGQGTTVTVSSASTKGPSVFPLAPSSKSTSGGTAALGCLVKDYFPEPVTVSWNSGALTSGVHTFPAVLQSSGLYSLSSVVTVPSSSLGTQTYICNVNHKPSNTKVDKKVEPKSCDKTHTCPPCPAPELLGGPSVFLFPPKPKDTLMISRTPEVTCVVVDVSHEDPEVKFNWYVDGVEVHNAKTKPREEQYNSTYRVVSVLTVLHQDWLNGKEYKCKVSNKALPAPIEKTISKAKGQPREPQVYTLPPSRDELTKNQVSLWCLVKGFYPSDIAVEWESNGQPENNYDTTPPVLDSDGSFFLYSDLTVDKSRWQQGNVFSCSVMHEALHNHYTQKSLSLSPGK
chain: EVQLLESGGGLVQPGGSLRLSCAASGFTFSSFPMAWVRQAPGKGLEWVSTISTSGGRTYYRDSVKGRFTISRDNSKNTLYLQMNSLRAEDTAVYYCAKFRQYSGGFDYWGQGTLVTVSSGGGGSGGGGSGGGGSDIQLTQPNSVSTSLGSTVKLSCTLSSGNIENNYVHWYQLYEGRSPTTMIYDDDKRPDGVPDRFSGSIDRSSNSAFLTIHNVAIEDEAIYFCHSYVSSFNVFGGGTKLTVLRQPGAAAEPKSCDKTHTCPPCPAPELLGGPSVFLFPPKPKDTLMISRTPEVTCVVVDVSHEDPEVKFNWYVDGVEVHNAKTKPREEQYNSTYRVVSVLTVLHQDWLNGKEYKCKVSNKALPAPIEKTISKAKGQPREPQVYTLPPSRDELTKNQVSLTCRVKGFYPSDIAVEWESNGQPENNYKTTPPVLKSDGSFFLASKLTVDKSRWQQGNVFSCSVMHEALHNHYTQKSLSLSPGK
notes: YBODY format; also called bispecific antibody M701D
In the case of B5, the Kd [3] is reported as 14.4 nM.
